For data set [1], the target named is T1, GST-HYH (Arabidopsis thaliana, UniProt Q8W191 1-149).
T1 sequence: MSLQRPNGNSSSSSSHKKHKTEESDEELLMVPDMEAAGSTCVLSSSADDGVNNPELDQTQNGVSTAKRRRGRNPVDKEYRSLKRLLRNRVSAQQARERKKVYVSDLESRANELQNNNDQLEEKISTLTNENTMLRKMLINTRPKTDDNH
Description: competition; unlabeled competitor vs N1; EMSA: 2 ug protein in 20 uL, 10 mM Tris-HCl pH 7.5, 50 mM KCl, 1 mM DTT, 50 ng/uL poly(dI-dC), 25 C, 20 min; 4-6% native PAGE, 0.5x TBE. The note with it: protein: recombinant; tags: GST (pGEX-4T-1); chain copies: 2; label: unlabeled. A general note: Mobility shift assays separate free from complexed probe on a gel.

Data set [2] concerns the target T2, His-HY5 (Arabidopsis thaliana, UniProt O24646 1-168).
T2 sequence: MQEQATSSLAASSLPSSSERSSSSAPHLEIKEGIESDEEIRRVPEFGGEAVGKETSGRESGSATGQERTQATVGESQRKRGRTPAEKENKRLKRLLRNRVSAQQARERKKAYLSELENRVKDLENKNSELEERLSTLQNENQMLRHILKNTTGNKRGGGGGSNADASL
The description is as above. The note with it: protein: recombinant; tags: His; chain copies: 2; label: unlabeled.

Data set [3] has as its target T1, GST-HYH. Description: EMSA; EMSA: 2 ug protein in 20 uL, 10 mM Tris-HCl pH 7.5, 50 mM KCl, 1 mM DTT, 50 ng/uL poly(dI-dC), 25 C, 20 min; 4-6% native PAGE, 0.5x TBE. As to conditions: protein: recombinant; tags: GST (pGEX-4T-1); chain copies: 2; label: biotin 5'.
Data set [4] deals with T2, His-HY5. Described as above. The note with it: protein: recombinant; tags: His; chain copies: 2; label: biotin 5'.
The target in another data set is T3, His-RSM1 (Arabidopsis thaliana, UniProt Q9SIJ5 1-101).
T3 sequence: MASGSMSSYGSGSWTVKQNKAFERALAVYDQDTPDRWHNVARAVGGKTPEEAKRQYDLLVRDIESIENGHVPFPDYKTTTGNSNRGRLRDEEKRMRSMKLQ
The description is as above. The note with it: protein: recombinant, tags: His (pET28a).

The target in a further data set is T4, GST-HY5 (Arabidopsis thaliana, UniProt O24646 1-168).
T4 sequence: T2 sequence
The description is as above. As to conditions: protein: recombinant; tags: GST (pGEX-4T-1 in Methods); chain copies: 2; label: biotin 5' on both strands; blunt.

Data set [5] addresses T5, GST-HY5 (ELONGATED HYPOCOTYL 5) (Arabidopsis, UniProt O24646 1-168).
T5 construct: HY5 (ELONGATED HYPOCOTYL 5), bZIP transcription factor, Arabidopsis, At5g11260; the CDS cloned into the EcoRI and XhoI sites of pGEX-4T-1
T5 sequence (looked up): T2 sequence
Description: pull-down; 2 ug GST or GST fusion protein mixed with 2 ug His-RSM1 in 500 uL GST binding buffer (50 mM Tris-HCl pH 7.5, 100 mM NaCl, 0.1% Nonidet P-40), Glutathione Sepharose 4B beads, 4 C, 2 h; four washes; immunoblot with anti-GST or anti-His. As to conditions: both partners purified. (In western blotting, separated proteins are transferred to a membrane and probed.)

B1: RSM1 promoter m2 competitor (dsDNA)
DNA 1: ATCTAGAGAATAGTACTATAACCACTAA
DNA 2: TTAGTGGTTATAGTACTATTCTCTAGAT
As to B1, the binding result with GST-HYH [1] and in the data set with His-HY5 [2] was “no binding” throughout.

B2: RSM1 promoter C-box probe (WT) (dsDNA)
DNA 1: ATCTAGAGAATGACGTCATAACCACTAA
DNA 2: TTAGTGGTTATGACGTCATTCTCTAGAT
On to B2, for which the binding result with GST-HYH [3] and with His-HY5 [4] was “binds” each time.

B3: RSM1 promoter m1 competitor (dsDNA)
DNA 1: GCTGCAAGAATGACGTCATAACCACTAA
DNA 2: TTAGTGGTTATGACGTCATTCTTGCAGC
Take B3: the binding result with GST-HYH [1] and with His-HY5 [2] was “binds” each time.

B4: ABI5 promoter probe (HY5 site) (dsDNA)
DNA 1: CCTTATGCAGTGAATAGTCCACGTGCACTCCCAATGGAAGTTCGGAATC
DNA 2: GATTCCGAACTTCCATTGGGAGTGCACGTGGACTATTCACTGCATAAGG
In the case of B4, the binding result with His-RSM1 (label: biotin 5' on both strands, blunt) is on record as “no binding”; in the data set with GST-HY5, “binds”.

B5: RSM1 promoter P1 (dsDNA)
DNA 1: GAGACTTGTCCCTAACTTTCAACCAAAGACTTGTAATTTTCCGCGAGCAC
DNA 2: GTGCTCGCGGAAAATTACAAGTCTTTGGTTGAAAGTTAGGGACAAGTCTC
For the molecule B5, the binding result in the data set with His-RSM1 (label: biotin 5') is “binds”.

B6: RSM1 promoter m3 competitor (dsDNA)
DNA 1: ATCTAGAGAATGACGTCATAACTGTCGG
DNA 2: CCGACAGTTATGACGTCATTCTCTAGAT
B6: the binding result in the data set with GST-HYH [1] and with His-HY5 [2] was “binds” each time.

B7: His-RSM1 (RADIALIS-LIKE SANT/MYB 1) (natural protein, Arabidopsis, UniProt Q9SIJ5 1-101, looked up)
chain: T3 sequence
notes: the CDS of RSM1 cloned into the BamHI and SacI sites of pET28a; also called MEE3; MATERNAL EFFECT EMBRYO ARREST 3; source: E. coli BL21 (pET28a-RSM1, 1 mM IPTG), purified with Ni-NTA beads
Consider B7, for which, in data set [5], the binding result is on record as “binds”.

B8: RSM1 promoter P2 (dsDNA)
DNA 1: GTGAGCTTTGTGCTCTGATTAGAGACCAGACTGTTCCATGAATTAAGTAC
DNA 2: GTACTTAATTCATGGAACAGTCTGGTCTCTAATCAGAGCACAAAGCTCAC
For B8, the binding result with His-RSM1 (label: biotin 5') was “binds”.

The record behind these values is PMC6317822, “RSM1, an Arabidopsis MYB protein, interacts with HY5/HYH to modulate seed germination and seedling development in response to abscisic acid and salinity” (PLoS Genetics, 2018).
